Measurements reported in patent publication US20250208146A1 (UNIVERSITY OF FLORIDA RESEARCH FOUNDATION, published 2025).

Legend:
[1] = biological target: T1, Z Alpha-1 Antitrypsin (Z-AAT) (human, UniProt P01009 25-418); assay: BLI (Octet): antibody from hybridoma supernatant loaded on the biosensor at 15ug/mL, ZAAT 500nM in HEPES buffer, association 300.81 s, dissociation 800.02 s, one concentration; Full R^2 0.7794
T1 construct: In the assays the protein was Z-AAT purified from plasma of Pi*ZZ patients, or Z-AAT in Z/Z plasma; also called Z-variant of alpha-1 antitrypsin; Z-AAT protein variant

[2] = biological target: T1, Z Alpha-1 Antitrypsin (Z-AAT); assay: BLI (Octet): antibody from hybridoma supernatant loaded on the biosensor at 15ug/mL, ZAAT 500nM in HEPES buffer, association 300.81 s, dissociation 800.02 s, one concentration; column head kdis(1/s); Full R^2 0.7794

T1 sequence (P01009 25-418 E366K limits assumed): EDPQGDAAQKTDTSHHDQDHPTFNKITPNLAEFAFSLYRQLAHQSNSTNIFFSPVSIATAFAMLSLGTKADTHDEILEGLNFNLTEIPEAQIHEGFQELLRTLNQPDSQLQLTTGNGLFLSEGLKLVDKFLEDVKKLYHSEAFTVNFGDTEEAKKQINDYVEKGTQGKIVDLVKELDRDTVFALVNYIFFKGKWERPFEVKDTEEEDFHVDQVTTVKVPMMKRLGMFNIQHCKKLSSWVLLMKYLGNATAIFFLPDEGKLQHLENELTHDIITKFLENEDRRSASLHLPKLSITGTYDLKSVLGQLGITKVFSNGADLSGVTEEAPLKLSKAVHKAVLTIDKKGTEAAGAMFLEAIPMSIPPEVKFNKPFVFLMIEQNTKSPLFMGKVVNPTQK

B1: HL2440 (antibody, V domains shown)
VH: QVQLQQPGAELVKPGASVKMSCKASGYTFTSYWITWVKQRPGQGLEWIGDIYPGSGSTNYNEKFKNKATLTVDTSSSTAYMQLSSLTSEDSAVYYCAAAVKGFAYWGQGTLVTVSA
VL: DIVMTQSHKFMSTSVGDRVSITCKASQDVGTAVAWYQQKPGQSPKLLIYWASTRHTGVPDRFTGSGSGTDFTLTISNVQSEDLADYFCQQYSTYPLTFGSGTKLEIK
notes: Mouse monoclonal from a hybridoma, used as supernatant or purified; also called Z-specific antibody HL2440; ZAAT mAb
Kd [1]: 37.6 nM | kon [1]: 33200 M⁻¹ s⁻¹ | koff [2]: 0.00125 s⁻¹
